Laboratory results reported in patent publication US20220333113.
Residue numbers refer to the chain shown, from its start.

Key:
Test in all cases: filter
Details in all cases: J = PPdU at every J; SB18T0.01 + 1 mM DTT, 37 C
[1] = target: T1, RIG-I N668A (Homo sapiens) (UniProt O95786)
T1 sequence: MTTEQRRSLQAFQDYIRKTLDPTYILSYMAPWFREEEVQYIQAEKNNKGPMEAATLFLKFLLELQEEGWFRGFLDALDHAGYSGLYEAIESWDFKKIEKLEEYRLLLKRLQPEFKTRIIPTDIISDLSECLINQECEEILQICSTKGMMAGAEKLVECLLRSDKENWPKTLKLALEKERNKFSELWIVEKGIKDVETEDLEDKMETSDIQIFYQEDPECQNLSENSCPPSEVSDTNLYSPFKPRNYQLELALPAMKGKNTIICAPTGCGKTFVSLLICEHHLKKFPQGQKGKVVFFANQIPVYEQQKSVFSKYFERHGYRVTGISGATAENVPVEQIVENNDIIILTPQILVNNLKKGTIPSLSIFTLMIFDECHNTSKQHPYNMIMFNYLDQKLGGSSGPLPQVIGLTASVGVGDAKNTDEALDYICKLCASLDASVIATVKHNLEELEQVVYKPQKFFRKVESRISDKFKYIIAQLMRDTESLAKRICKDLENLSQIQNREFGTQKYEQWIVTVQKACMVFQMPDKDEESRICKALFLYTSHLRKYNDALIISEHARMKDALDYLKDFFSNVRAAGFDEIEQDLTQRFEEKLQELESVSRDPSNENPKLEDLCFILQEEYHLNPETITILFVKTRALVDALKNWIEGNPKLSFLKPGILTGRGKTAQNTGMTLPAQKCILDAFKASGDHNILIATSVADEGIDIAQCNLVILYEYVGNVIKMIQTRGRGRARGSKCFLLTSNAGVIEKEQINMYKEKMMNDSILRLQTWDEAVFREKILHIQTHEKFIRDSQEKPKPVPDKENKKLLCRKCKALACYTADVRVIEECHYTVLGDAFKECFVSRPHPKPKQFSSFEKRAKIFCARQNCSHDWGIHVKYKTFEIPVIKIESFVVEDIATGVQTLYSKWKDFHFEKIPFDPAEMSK

[2] = target: T2, RIG-I K858A (Homo sapiens) (UniProt O95786)
T2 sequence: T1 sequence with A668N, K858A

[3] = target: T3, RIG-I helicase domain (aa 229-793) (Homo sapiens) (UniProt O95786)
T3 sequence: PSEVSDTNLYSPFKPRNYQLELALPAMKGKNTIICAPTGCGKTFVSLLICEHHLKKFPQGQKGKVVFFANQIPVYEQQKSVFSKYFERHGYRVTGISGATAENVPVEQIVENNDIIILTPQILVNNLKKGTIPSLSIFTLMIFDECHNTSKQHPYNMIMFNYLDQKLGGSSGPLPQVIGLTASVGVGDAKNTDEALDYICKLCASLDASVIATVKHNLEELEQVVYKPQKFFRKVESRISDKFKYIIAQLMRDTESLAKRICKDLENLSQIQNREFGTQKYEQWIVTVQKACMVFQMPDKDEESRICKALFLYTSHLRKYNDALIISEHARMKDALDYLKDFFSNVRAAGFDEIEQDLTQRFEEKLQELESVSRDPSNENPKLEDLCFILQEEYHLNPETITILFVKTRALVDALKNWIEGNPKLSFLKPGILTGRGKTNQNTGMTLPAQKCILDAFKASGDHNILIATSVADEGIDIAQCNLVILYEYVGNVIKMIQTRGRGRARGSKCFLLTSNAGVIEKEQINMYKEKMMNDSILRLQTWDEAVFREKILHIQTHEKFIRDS

## ATCTCTGTGTCATGTGTTTTAATGTCAGTTTAATGATGAGG [14832-55_8]
[1]
  Kd: 0.11 nM
[2]
  Kd: 2.9 nM
[3]
  Kd: 10 nM
